The text below walks through data of the DeepSol protein solubility set.

The nature of this data set: soluble on expression in E. coli; label from the status in PepcDB or PDB records.
Regarding “MSLDSLNLNKHISGQFNAELESIRTQVMTMGGMVEQQLSDAITAMHNQDSELAKRVVEGDHQVNMMEVAIDEACVRIIAKRQPTASDLRLVMAIIKTIAELERIGDVADKICRTALEKFSQQHQPLLVSLESLGRHTVQMLHDVLDAFARMDLDEAVRIYREDKKVDQEYEGIVRQLMTYMMEDSRTIPSVLTALFCARSIERIGDRCQNICEYIFYFVKGQDFRHVGGDELDKLLAGKDPKEGHHHHHH”, the “soluble on expression in E. coli” value was “soluble”.

In the case of “YTDRKNRIVEVDIASKAKRTVMQNPEGEFYEVNYSPDSQWITYTKSGANNMSVIYVYHLTSGKEYPVTE”, the “soluble on expression in E. coli” value is reported as “not soluble”. Then “MGDTFIRHIALLGFEKRFVPSQHYVYMFLVKWQDLSEKVVYRRFTEIYEFHKTLKEMFPIEAGAINPENRIIPHLPAPKWFDGQRAAENRQGTLTEYCSTLMSLPTKISRCPHLLDFFKVRPDDLKLPTDNQTKKPETYLM”, with “soluble”; and “MSLDENLIEEIKLADDISKGYNAALNYLSYQLRTRKEVEDKLRSLDIHEDYISEIINKLIDLDLINDKNYAESYVRTMMNTSDKGPKVIKLNLSKKGIDDNIAEDALILYTDKLQVEKGVTLAEKLANRYSHDSYRNKQNKIKQSLLTKGFSYDIIDTIIQELDLIFDDDTEREILLEKANKLWSRYDNLDIKKRKFKIQQALFKQGFSFSNITSALDEIEDTNEGHHHHHH”, with “soluble”. Take “MGHHHHHHSHMPMYQVKPYHGGGAPLRVELPTCMYRLPNVHGRSYGPAPGAGHVQEESNLSLQALESRQDDILKRLYELKAAVDGLSKMIQTPDADLDVTNIIQADEPTTLTTNALDLNSVLGKDYGALKDIVINANPGSPPLSLLVLHRLLCEHFRVLSTVHTHSSVKSVPENLLKCFGEQNKKQPRQDYQLGFTLIWKNVPKTQMKFSIQTMCPIEGEGNIARFLFSLFGQKHNAVNATLIDSWVDIAIFQLKEGSSKEKAAVFRSMNSALGKSPWLAGNELTVADVVLWSVLQQIGGCSVTVPANVQRWMRSCENLAPFNTALKLLK”: the “soluble on expression in E. coli” value was “not soluble”. “MPKHIIDEIESLSLATGFILKNGDFTEEKSLLVKPTMGGTWHWSPIKGLHSQDSIRKTRAYILQEIARMTIYPEAGVSPTLRRKKGIVIGVARAVSTELYHIVENDLIEEEMDTAKLAVGYDGETIVIKNDVDSKWKEELSKPLNLSETENKVIQRLLLISHGVIPLQGYSLVTTSHHYNDKSKRAFSAVERQFFSRCDQLSWWKEDEEALRDAMWHKAGHPVKISFKKEIACSITIKQSLANAGIGSVACRLPATEDVVWKAEAYRNLLKTLSPIFDDEVKWEALDEMLSYLNHFSAARPTEVVTVHNAPTHLMSLDTREKVVTWIAQWCSQNAEKVAICLGFHTALLENAGKFPGPSYSLMVLRTNVDSYILGTKLFSDYTVFKAKLRQLMDSVS”: the “soluble on expression in E. coli” value is on record as “soluble”. Regarding “MANFTAADVKRLRELTGAGMLACKNALAETDGDFDKAVEALRIKGAKDVGKRAERATAEGLVAAKDGALIELNCETDFVAKNAEFQTLADQVVAAAAAAKPADVDALKGASIGDKTVEQAIAELSAKIGEKLELRRVAIFDGTVEAYLHRRSADLPPAVGVLVEYRGDDAAAAHAVALQIAALRARYLSRDDVPEDIVASERRIAEETARAEGKPEQALPKIVEGRLNGFFKDAVLLEQASVSDNKKTVKALLDVAGVTVTRFVRFEVGQA”, the “soluble on expression in E. coli” value is “not soluble”.

As to “MTSRDQGINSELSNRTIQFKEKIHNGIHTEYITDQKHSNNKDREKKYRDGDKINGPQAHSLDITNERRFADNRTMFTQHIEKQRNVNTLNQNDINNSANNANVRENELTYQFQRWGQNHTVRILESSEGIRLKPSDTLVSDRLHEAQHNDVTAQRWVLTEQDERQGQRHQPHEEQENEGKFENDQKDES”, the “soluble on expression in E. coli” value is on record as “soluble”. “MGSDKIHHHHHHMLNEIITIYAITDDLLKAIGHDDDIRRDMIDAEIITTALVAAMFFNGNHSKACAYMKDHKLIPNMLEKSRFNLRLHNLSMLLNDLFHQIGMIIKEISDSTEYLLDSFPVTICDNIRIFQVHLIQSEEYRGYIASKKRYFYGVRVQLISTKSGIPVEFAFLPGSANDVRGLNALPFNLPPGSEVYADAAYTDYTVEDDMAQSSQISLKVMRKKNSKRQDQPWNQYVKQYTRHYIETVFSCITCIFPKSIHAVTYEGFLLKLQAFIFAFTLKSAFM”: the “soluble on expression in E. coli” value was “not soluble”. As for “MSLANKILTEKDTDQIRFSILASGSSGNATLVETGDQKILIDCGLSGKKMEGLFAQVGRDMNDLDAILITHEHSDHIKGLGVLARKYKLPIYANAKTWKAMDNMIGEVSSDQKFQFDMETVKTFGSMQVESFGVSHDAIEPMFYIFHKGNKKFVMITDTGYVSDRMKGHIAGADAYLFESNHDVEMLRMGRYPWNVKRRILGDEGHVSNEDAAIAMSEVITDQTKRIYLGHLSKDNNMKELARMSVTQTLMAEGIDVGGKLEIFDTDPDNATSIFTEGHHHHHH”, the entry is “not soluble”; as for “STTGIIMENVTAFWEEGFGELLEKVQQSNGDRKHSSDENNVSFSHLCLVGNPVLKNINLNIEKGEMLAITGSTGSGKTSLLMLILGELEASEGIIKHSGRVSFCSQFSWIMPGTIKENIIFGVSYDEYRYKSVVKACQLQQDITKFAEQDNTVLGEGGVTLSGGQRARISLARAVYKDADLYLLDSPFGYLDVFTEEQVFESCVCKLMANKTRILVTSKMEHLRKADKILILHQGSSYFYGTFSELQSLRPDFSSKLMGYDTFDQFTEERRSSILTETLRRFSVDDSSAPWSKPKQSFRQTGEVGEKRKNSILNSFSSVRKISIVQKTPLCIDGESDDLQEKRLSLVPDSEQGEAALPRSNMIATGPTFPGRRRQSVLDLMTFTPNSGSSNLQRTRTSIRKISLVPQISLNEVDVYSRRLSQDSTLNITEEINEEDLKECFLDDVIKIPPVTTWNTYLRYFTLHKG”, “soluble”. Regarding “MANSSPCMKAVRVPKSEAEQVRRLAEKLGVKDKSRRITATGDYVEIPIIDSAESFFKGYTIVEQDNPVFSRKRSLREILRGKVPEELIPTNYKVIGDIVVVKLDERAREYAKVIGEALMQINPCKAVWCDYGRYGMKRKPRMELIAGEGSVTEHRENGCRFRIDVAKVMFSLGNQAERMRIARLVEDGEVVVDMFAGIGYFSIPIAVHSKARRIYSIEINPESYKLLLENIKLNDVGNIVPILGDSQFVTPEGVADRVVMGHIYCHDYLHTAIRALKERGVVHYHEATPEAVIDRPVRRVEKACRKMGKKCRILGFKKVKNYSPGVYHVVVDAEVY”, the “soluble on expression in E. coli” value was “not soluble”. As for “MSLKTVEDNRTSLTDQVLKGTLIQDKLYESNKYYPIYGSSELGKDDPFNPAIALNKHNANKKAFLLGAGGSTDLINAIELASQYDKLKGKKLTFIISPQWFTNHGLTNQNFDARMSQTQINQMFQQKNMSTELKRRYAQRLLQFPHVHNKEYLKSYAKNPKETKDSYISGFKENQLIKIEAIKSLFAMDKSPLEHVKPATKPDASWDEMKQKAVEIGKADTTSNKFGIRDQYWKLIQESKRKVRRDYEFNVNSPEFQDLELLVKTMRAAGADVQYVSIPSNGVWYDHIGIDKERRQAVYKKIHSTVVDNGGKIYDMTDKDYEKYVISDAVHIGWKGWVYMDEQIAKHMKGEPQPEVDKPKNEGHHHHHH”, the entry is “soluble”; as for “MPFTLGQRWISDTESELGLGTVVAVDARTVTLLFPSTGENRLYARSDSPVTRVMFNPGDTITSHDGWQMQVEEVKEENGLLTYIGTRLDTEESGVALREVFLDSKLVFSKPQDRLFAGQIDRMDRFALRYRARKYSSEQFRMPYSGLRGQRTSLIPHQLNIAHDVGRRHAPRVLLADEVGLGKTIEAGMILHQQLLSGAAERVLIIVPETLQHQWLVEMLRRFNLRFALFDDERYAEAQHDAYNPFDTEQLVICSLDFARRSKQRLEHLCEAEWDLLVVDEAHHLVWSEDAPSREYQAIEQLAEHVPGVLLLTATPEQLGMESHFARLRLLDPNRFHDFAQFVEEQKNYRPVADAVAMLLAGNKLSNDELNMLGEMIGEQDIEPLLQAANSDSEDAQSARQELVSMLMDRHGTSRVLFRNTRNGVKGFPKRELHTIKLPLPTQYQTAIKVSGIMGARKSAEDRARDMLYPERIYQEFEGDNATWWNFDPRVEWLMGYLTSHRSQKVLVICAKAATALQLEQVLREREGILAAVFHEGMSIIERDRAAAWFAEEDTGAQVLLCSEIGSEGRNFQFASHMVMFDLPFNPDLLEQRIGRLDRIGQAHDIQIHVPYLEKTAQSVLVRWYHEGLDAFEHTCPTGRTIYDSVYNDLINYLASPDQTEGFDDLIKSCREQHEALKAQLEQGRDRLLEIHSNGGEKAQALAESIEEQDDDTNLIAFAMNLFDIIGINQDDRGDNMIVLTPSDHMLVPDFPGLSEDGITITFDREVALAREDAQFITWEHPLIRNGLDLILSGDTGSSTISLLKNKALPVGTLLVELIYVVEAQAPKQLQLNRFLPPTPVRMLLDKNGNNLAAQVEFETFNRQLNAVNRHTGSKLVNAVQQDVHAILQLGEAQIEKSARALIDAARNEADEKLSAELSRLEALRAVNPNIRDDELTAIESNRQQVMESLDQAGWRLDALRLIVVTHQ”, “not soluble”; as for “MFSTGSGELCDSSAARAGGSMIHPILAKVTQNLTERSREARAAFIARSQAQEKAGKGRTSLSCGNLAHAVAASCSTEKKAILDFTRSNVAIVTSYNDMLSAHQPYQHYPDRIKMVLAEYGHTAQVAGGVPAMCDGVTQGQPGMDMSLFSRDLIAQATALSLSHNVFDATLLLGICDKIAPGQLMGALSYAHLPTAFMPAGLMATGISNEEKVDIRQKYAAGEVGKDALLNMECQAYHAPGTCTFYGTANTNQLVFEAMGLMLPGSAFVHPHSALRQALNDDATVKIASMTQGSAQYRPLYQVVTEKSLLNGIVALLASGGSTNHTIHMLAVARAAGILLTWQDISDLSDVVPLLAKVYPNGPADMNAFQQAGGVPALMKRLHESKLLHSDVTPVFGEFRDQLTLPELVDGELCWKACEGTRDAQVIAASGECFQTTGGTKMLNGNLGRAVIKVSAVKEEQRIIEAPAVVFQCQHQVEAAYQRGELNKDCIVVVTHNGPAANGMPELHKLMPILGNVQKAGFKVALVTDGRLSGASGKIPSAIHVSPEAVRGGAIGLVRDGDLLRLDCTTGTLENLTDMSHRQALALDTERDQQMWGRELFKVMRQAVSSAEQGASFIV”, “not soluble”. On to “MSLEPSVTGPSEAPVLDTAWMKAVPSVRPVPAGSAAEALEALAVKGRAADDSYERTAFGQAWLDVDRNGCDTRNDILRRDLAGVQFTEGSRCRVAGGEFHEPYTGAVVTFTRGAESSKAVQIDHVVALGDAWQKGAQQLTPQQRQSLANDPLNLVAADGPANQEKSASDAASWLPKNKTFRCHYVARQISVKAAYGLWVTQPEKDAMKRVLDSCPQQQTVMPREGHHHHHH”, for which the “soluble on expression in E. coli” value is “soluble”. As for “VDICNHALLVGFGRVGSLLGEKLMAQGIPLVVVETSRTRVDELRERGISAVLGNAANEEIMELAHLDCARWLLLTIPNGYEAGEIVASAREKCPNIEIIARAHYDDEVDYIIDRGANQVVMGEREIARAMLRLLETPPAG”, the entry is “not soluble”; as for “MNIHEIRKQFPILDQKVNGKQLVYFDSAATSQKPIQVIETLERYYKEYNSNVHRGVHTLGTKATDAYEGAREKVRKFINAKSMEEIIFTCGTTTALNTVAASYGLENVKEGDEIVISYMEHHSNIIPWQQVAKKTGATLKYLPLQPDGTISIEDARQTITPNTKIVSIMYVSNVLGTINPVKEIGAIAHENGAIMVVDGAQSTPHMKVDVQDLNCDFYALSAHKMCGPTGIGVLYGKKELLNNMEPIEFGGEMIDFVDLQESTWKELPWKFEAGTPIIGNAIGLGAAIDFLEEIGLDNIEKHEHELAQYALERLSEVDGVTIYGPKHRAGLVTFNIEDVHPHDVATVLDVEGIAVRAGHHCAQPLMKWLKASSTARASFYLYNTKEEIDTFVESLIKTKEYFTNVI”, “not soluble”.
